In patent US20090123479A1 (published 2009):
Positions count from the first letter of the chain named. Values belong to the binder of their own block, whether it stands above or below them.

What was measured:
[1] = target: T1, recombinant cynomologus IL-23 (cynomolgus, limits assumed); experiment: IL-23/IL-23R inhibition ELISA (optimised protocol, OD450): plate coated with human IL23R Fc chimera, antibody pre-incubated with constant cynomolgus IL-23, bound IL-23 detected with biotinylated anti-human IL-12; purified antibody
T1 construct: also called cynomolgus IL-23; cyno IL23
T1 chain 1: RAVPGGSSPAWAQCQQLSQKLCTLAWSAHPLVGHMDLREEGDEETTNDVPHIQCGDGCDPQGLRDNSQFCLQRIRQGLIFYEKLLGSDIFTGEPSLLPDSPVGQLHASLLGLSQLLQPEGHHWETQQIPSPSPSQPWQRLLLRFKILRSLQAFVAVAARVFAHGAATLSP
T1 chain 2: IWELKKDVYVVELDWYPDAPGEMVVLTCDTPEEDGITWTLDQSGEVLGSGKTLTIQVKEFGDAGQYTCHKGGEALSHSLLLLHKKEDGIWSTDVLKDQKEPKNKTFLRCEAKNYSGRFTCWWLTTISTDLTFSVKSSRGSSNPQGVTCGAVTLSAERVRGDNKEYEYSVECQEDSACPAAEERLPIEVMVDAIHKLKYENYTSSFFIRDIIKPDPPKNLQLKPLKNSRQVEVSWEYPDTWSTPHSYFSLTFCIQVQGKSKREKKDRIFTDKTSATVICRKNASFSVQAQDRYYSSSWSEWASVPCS
Description: (§1) Optimised protocol: Plates were coated with human IL23R Fc chimera at […] (phosphate buffered saline). 50 μl/well of this mixture was incubated overnight at 4° C. The plates were then washed three times with Phosphate Buffered Saline with 0.05% Tween 20 (PBST). Plates were blocked with 4% skim milk powder (Fluka BioChemika #70166) PBST 100 μl/well for a minimum of 1 hour at room temperature. The plates were then washed three times with Phosphate Buffered Saline+0.05% Tween 20 (PBST). Various concentrations of antibody were incubated in a separate plate with a constant concentration of IL-23 for 1 hour at room temperature. 50 ul of each mixture were transferred to the assay plate and incubated at RT for 1 hr. They were then washed three times with Phosphate Buffered Saline+0.05% Tween 20 (PBST). Bound IL23 was detected by anti human 1L12 Biotin labelled Ab (R&D systems BAF219) diluted to 100 ng/ml in 4% skim milk powder (Fluka BioChemika #70166) PBST. 50 μl/well of the biotinylated antibody was added and incubated at RT for 1 hour. The plates were then washed three times with Phosphate Buffered Saline+0.05% Tween 20 (PBST). SA HRP (GE healthcare RPN4401) was diluted 1/4000 in 4% skim m ilk powder (Fluka BioChemika #70166) PBS, 50 μl/well was added to the plates. The plates were then washed three times with Phosphate Buffered Saline+0.05% Tween 20 (PBST). 50 ul/well of TMB was added to the plates and incubated at RT for 15 min. 25 μl/well of 3 MH₂SO₄ was added to the wells already containing TMB. The plate was read at OD450 nm using the SOftmaxPRO versamax plate reader.

[2] = target: T2, Endogenous human IL-23 (human, UniProt Q9NPF7 20-189; P29460 23-328); experiment: receptor inhibition ELISA in 25% human pooled AB serum: plate coated with recombinant human IL-23 receptor, endogenous human IL-23 at 5 ng/ml pre-incubated with titrated purified antibody, bound IL-23 detected with biotinylated anti-human IL-12
T2 construct: also called endogenous human IL-23 from stimulated dendritic cells
T2 sequence 1: T1 chain 1 with A12T, R75H, P131L
T2 sequence 2: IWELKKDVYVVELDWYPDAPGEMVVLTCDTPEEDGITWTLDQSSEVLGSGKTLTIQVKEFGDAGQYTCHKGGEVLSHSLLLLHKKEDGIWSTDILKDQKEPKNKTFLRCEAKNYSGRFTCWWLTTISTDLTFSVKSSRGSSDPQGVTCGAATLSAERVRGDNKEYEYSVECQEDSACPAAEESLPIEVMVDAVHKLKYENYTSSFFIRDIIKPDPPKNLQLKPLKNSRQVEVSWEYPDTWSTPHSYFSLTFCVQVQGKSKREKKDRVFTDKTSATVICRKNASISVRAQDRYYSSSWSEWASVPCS
Description: (§2) Recombinant human IL-23 Receptor (R&D systems 1400-IR-050) was coated onto 96 well plates at a concentration of 1 μg/ml. Endogenous human IL-23 at 5 ng/ml final, was pre incubated with a titration of purified mAbs before being added to the pre-coated plates. Detection was performed with biotinylated anti-human IL12 (R&D systems BAF-219), followed by Streptavidin-HRP (GE Healthcare RPN 4401). This neutralisation ELISA used 25% human pooled AB type serum.

[3] = target: T3, recombinant human IL-23 (human, UniProt Q9NPF7 20-189; P29460 23-328); experiment: IL-23/IL-23R inhibition ELISA (optimised protocol, OD450): plate coated with human IL23R Fc chimera, antibody pre-incubated with constant human IL-23, bound IL-23 detected with biotinylated anti-human IL-12; purified antibody
T3 construct: also called hIL-23
T3 sequence 1: T1 chain 1 with A12T, R75H, P131L
T3 sequence 2: T2 sequence 2
Description: as §1

[4] = target: T2, Endogenous human IL-23; experiment: receptor inhibition ELISA: plate coated with recombinant human IL-23 receptor, endogenous human IL-23 at 3.5 ng/ml pre-incubated with titrated purified antibody, bound IL-23 detected with biotinylated anti-human IL-12; 1% BSA
Description: as §2, with “at 3.5” for “at 5”, “incubated for 1 hour” for “incubated”, “purified antibody material” for “purified mAbs”, “anti-human 1L12” for “anti-human IL12”, “systems BAF-219)” for “systems BAF-219),”, “used 1% BSA.” for “used 25% human pooled AB type serum.”

IC50 (read off the curve) [1]: ~0.7 nM
IC50 (read off the curve) [2]: ~0.01 µg/mL
IC50 (read off the curve) [3]: ~0.5 nM
IC50 (read off the curve) [4]: ~0.005 µg/mL
B1: A3M0 (antibody, human IgG1, kappa, V domains shown)
VH: QVQLVQSGAEVKKPGSSVKVSCKASGYTFTSYGITWVRQAPGQGLEWMGENYPRSGNTYYNEKFKGRVTITADKSTSTAYMELSSLRSEDTAVYYCARSEFISTVVAPYYYALDYWGQGTLVTVSS
VL: DIVMTQSPDSLAVSLGERATINCKASKKVTIFGSISALHWYQQKPGQPPKLIYNGAKLESGVPDRFSGSGSGTDFTLTISSLQAEDVAVYYCLQNKEVPYTFGGGTKVEIKR
notes: Full length chains; also called humanized mAb A3M0

IC50 (read off the curve) [1]: ~2 nM
IC50 (read off the curve) [2]: ~0.02 µg/mL
IC50 (read off the curve) [3]: ~2 nM
IC50 (read off the curve) [4]: ~0.1 µg/mL
B2: chimeric 8C92H6 HC1LC1 (antibody, V domains shown)
VH: QVQLQQSGAELARPGTSVKLSCKASGYTFTSYGITWVKQRTGQGLEWIGENYPRSGNTYYNEKFKGKATLTADKSSSTAYMELRSLTSEDSAVYFCARCEFISTVVAPYYYALDYWGQGTSLVTVS
VL: DIVLTQSPASLAVSLGQKATISCKASKKVTIFGSISALHWYQQKPGQPPKLIYNGAKLESGVSARFSDSGSQNRSPFGNQLSFTLTIDPVEADDAATYYCLQNKEVPYTFGGGTKLEIKR
notes: Murine variable regions with human constant regions; also called 8C92H6.HC1LC1 Chimera; 8C9 chimera
